Laboratory results taken from the DeepSol protein solubility set.

Assay: soluble on expression in E. coli; label from the status in PepcDB or PDB records

Row | Sequence | soluble on expression in E. coli
1 | MAHHHHHHMHTLVNFYTKGSDPVHKATIMPRGMSLGVTWKIPISDKYSQKIRDVQSEIDILMGGLVSEEIIFGKNNVTTGCSSDLQRATHIAQSLVMNYGVGINEENISMFLQDKKNISEEMKIKIDKSIQRILLDSYNRAKKVLNQHIDELHRVASALVEYETLTSDEIKLAMQGKHDQIRKNRELKQKEFNLKDSRIS | soluble
2 | MAHHHHHHMIEETSFSNLKWEHDLFSIGDLHGDMDAFLKILLNEKMIDKNYNVIRENVLIVITGDVLDPSYDDINILFFIEEYNEKGKALNSKILMVLGNHEVKNMCLEFNKVKKNVEKYQNRNDMFPKNEVIYNILVNKPFVLRVNEMVFSHAGVLPFYASYGIDYINKEGKNEIENNCKLLFNKRKRKEEFCIACDYGPTLNRYFSFVNDGVFKKWMVCSTLNKSLNLLSSRRMIVGHTVQKNKKINSFCDDKLLLTDTGISKWKNGVVSYVQYFKDGTFDVRYL | not soluble
3 | MAHHHHHHMIIEKGEPLNKEIIDHVLDHVTEFPTPTMVSVGDGKADCIVLENFLTHEECDQLVAACEKVGYTFWLQKNHHDADGEATCDSGSKAVRVVDTIEANFPHLSAKLYERIARVVSLKPKCFSEDMPNAEELFERELAGTWVPHALSENLLFGRYHPGGHFMPHVDGATILDLNTRSFYTLLIYLNDCLHGGETFIFAGEQCNVMYLDEKENQYRGNATQRVGAVYPKKGSAAFFYYNLLHEGAPVLEGHKYICRADLLYHRTPTIFTSEADEKAFKAYQEARLAESHGDAERACQLFQRVRKLSKGVASIFQIE | soluble
4 | MAHHHHHHMIVASSLEVRNYGEWVRQVRAERIIVNCPDEMDVKAMCAWMKRDETKEKQAECWKEVKKHMYLLGPIPRHVFDEEAFTERCGAVKFALQSINDVTVKECFPRGGESPWCSEDPSHKPVRVVREIYEGSVILFNAPMCDCLEERTLKRLPSVAE | not soluble
5 | MAHHHHHHMKCVLVVHSGGERMQRSCDLPDGVSTQEQLRAFVRSQDLRLESLDFTFAASLVRLTAGAAEKKGEKVVLREDADVQQLLKTAKQQRATHVLTFEVTISMSSSSPRNLGSFLSAEYAVDKDLVTLHVFAPLACPSRGKNPSYQEKMFIIPTRCVLESLARAVEDTLSIKLTNSGMKLVLYTMPQQPNGDQVEILYDTSALELLRQHTSQSTPGSTHLRHPYANPENYV | not soluble
6 | MAHHHHHHMKFTISTSIEDVLFKGGFRVKEMRLNDFLTVIFGGRSILRANRSVLLRDFFSDPTRYIHDAGVLNEIQATGAYARMEEAVRDEIIFEEDRSKLRDKGVINLLGWSEAAANVKTTVHNNNKNSLDAALEEARNPTTTSTPIYLEGCYESVYNAKWHHLVEVPGGEGTGMDVEEGEPPQS | not soluble
7 | MAHHHHHHMKGDAEVVDIGSEVLSVTFSNSGRRLAVLTMRQEISVYETVVPTEPIIIKTFQTSFDAAGGWNKTVGPRSANYNARFNVIAFSPEGEKIVAGGDSKWIVMYHATQGYMLKKWPVTTNQDVQGAEEQYQWRQMTEAGHVDDIDVDDADIHLRRGKIMEMPGSRHRHFATGKRQTALTARTMDLAFSCTGTEFVAATTDGLLMFSTRVARPKFQPLQLSANITTQQVRDQLDRGEPVMALMGAMKLGDKMLGVECLRRMPRDAIPVAVSSVPSVLFPLLVQWVSTEVEESRGIEQALLWAQSLMLHSNECTGGFAQERSAVIPALKVLQRGLQQHRALTDLAKENYFSLRYIIDMTKMQKDILQPAATVE | not soluble
8 | MAHHHHHHMKLFCVGHRKVPIRVSPFDHPICVGCSSTLSFSSVLRKREYWNDMSTTNPLDVVLNMRLAVKELTNSAAASDKASEREKIKAKKALNKDNIEAARVYAENAIRKKDEGTSYLRLASRVDAAAERIQSAMQMHAMTRSLEKAICGISKVLHSLDPVQITTAMDAFERHVDTVAVNANAMDGTFERSRASAVPAAEVESFLEQITPDNEIDISEQIAVATNYLKKRPAATEVGDDVGITERMQRISIGAR | not soluble
9 | MAHHHHHHMKQSIVTPLRSPLHCATPLPLTFFPSYRRWLPVVRHASRRPHGVFEQRRRGRPHGSTKRVLRHCDAARRVAVVQQKLHVRHVPAIGTKKPTQSHIGSHKAAVAFHRHDSTFLNGVPPNHHTHRRSPRRQFVLRKQTKRFHQEGAVAPLGLVKNGPRPQRTAGITERVYSISLRVTFQKKVSLAAKPVHQLSIDALHALRGVLRRDTSVRKNNPLAHHSHRMLKNVQAVGTLWAKGRRVRLFSSKGTHNIRVYVVEDAQDIHQLMVAHKKNKFPARLHCLPLQGGKKVVNLVGVEPAISDVAKLDNYRRTSNPAILGIRNICQLQYLATAKNIAMNVSKRNQAGLSAADVYRLHVQKRHKICRSAKK | not soluble
